This test concerns the target rabbit GH receptor (rabbit) (UniProt P19941). Briefly: cell-based or functional assay.

The values below come from US7754855.

UniProt P19941, sequence (P19941 19-638): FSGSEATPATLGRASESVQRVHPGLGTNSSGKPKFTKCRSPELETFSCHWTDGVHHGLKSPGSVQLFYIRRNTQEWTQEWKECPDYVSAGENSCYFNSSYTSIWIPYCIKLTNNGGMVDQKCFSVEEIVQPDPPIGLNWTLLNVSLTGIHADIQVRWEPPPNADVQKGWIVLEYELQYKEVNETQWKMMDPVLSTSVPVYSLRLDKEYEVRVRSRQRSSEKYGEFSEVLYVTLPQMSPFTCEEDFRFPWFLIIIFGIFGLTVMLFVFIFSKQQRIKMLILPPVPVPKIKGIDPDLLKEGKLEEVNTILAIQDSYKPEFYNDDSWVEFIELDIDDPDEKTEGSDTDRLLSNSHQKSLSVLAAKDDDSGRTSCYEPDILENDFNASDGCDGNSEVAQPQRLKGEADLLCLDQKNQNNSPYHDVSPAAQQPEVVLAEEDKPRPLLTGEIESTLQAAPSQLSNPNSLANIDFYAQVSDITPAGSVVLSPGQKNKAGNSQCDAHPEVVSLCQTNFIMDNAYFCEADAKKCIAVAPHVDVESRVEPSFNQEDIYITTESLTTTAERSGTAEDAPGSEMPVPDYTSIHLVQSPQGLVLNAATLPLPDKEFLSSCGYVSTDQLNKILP

In the case of “human pituitary GH standard (from UniProt P01241 27-217) (ligand)”, the Mean EC50 (nM), proliferation of GH-R4 cells amounted to 0.036 nM and the Mean EC50 (ng/ml), proliferation of GH-R4 cells turned out to be 0.8 ng/mL.
